Results taken from the RNAGym collection of RNA variant scans (doi:10.1073/pnas.2313332121).
Fewer inactive variants are shown than the library holds.

B1: TPR 5TU (parent)
chain: GGAUCUUCUCGAUCUAACAAAAAAGACAAAUCUGCCACAAAGCUUGAGAGCAUCUUCGGAUGCAGAGGCGGCAGCCUUCGGUGGCGCGAUAGCGCCAACGUUCUCAACUAUGACACGCAAAACGCGUGCUCCGUUGAAUGGAGUUUAUCAUG

Variants of: B1
Assay: polymerase ribozyme fitness, log enrichment relative to wild type (log ratio); higher = more active; in vitro selection for triplet polymerase activity
Procedure, shortened: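 For each subunit of a heterodimeric triplet polymerase ribozyme, a mutant library was built by PCR and transcribed, then taken through a single in vitro selection round in triplicate. Selection involved annealing to a biotinylated primer, the partner subunit and triplets, incubation frozen at −7 °C, gel excision of extended constructs, capture on streptavidin beads and RT-PCR. Genotypes were retained after Illumina sequencing of inputs and outputs only with ≥10 input reads and ≥1 read in each output. Fitness is defined as the logarithm of a genotype's enrichment relative to wild-type enrichment, using inverse-variance-weighted averages across replicates, with the logarithm taken to base 2.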

First: GGAUCUUCUCGAUCUAACAAAAAAGACAAAUCUGCCACAAGGCUUGAGAGCAGCUUCGGAUGCAGAGGCGGCAGCCUUCGGUGGCGCGAUAGCGCCAACGUUCUCAACUAUGACACGCAAAACGCGUGCUCCGUUGAAUGGAGUUUAUCAUG [A41G U53G]
Second: GGAUCUUCUCGAUCUAAUAAAAAAGACAAAUCUGCCACAAAACUUGAGAGCAUCUUCGGAUGCAGAGGCGGCUGCCUUCGGUGGCGCGAUAGCGUCAUCGUUGUCAACUAUGACACGCAAAACGCGUGCUCCGUUGAAUGGAGUUUAUCAUG [C18U G42A A73U C95U A98U C103G]
The “polymerase ribozyme fitness (log ratio)” value of the first is higher: -0.77 for the first, at most -4.2 for the second.

GGAUCUUCUCGAUCUAACAAAAAAGACAAAUCUGCCACAAUGCUUGAGAGCAUCUUCGGAUGCAGAGGCGGCAGCCUUCGGUGGCGCGAUAGCGCAAACGUUCUAAACUAUGACACUCAAAACGCGUGCUCCGUUGAAUGGAGGUUAUCAUG [A41U C96A C105A G117U U144G] and GGAUCUUCUCGAUCUAACAAAAAAGACAAAUCUGCCACAAAGCUUGAGGGCAUCUUCGGAUGCAGAGGCAGCAGCCUUCGGUGGCGCGAUAGCGCCAACGUUCUCAACUAUGACACGCAAAACGCGUGCUCCGUUGAAUUGAGUUUAUCAUG [A49G G70A G140U] cannot be ordered by “polymerase ribozyme fitness (log ratio)” value: at most -4.2 for the first, at most -4.2 for the second.

Compared with GGAUCUUCUCGAUCUAACAAAAAAGACAAAUCUGCCACAAAGCUUGAGAGUAUCUUCGGAUGCAGAGGCGGCAGCCUUCGGUGGCGCGAUACCGCCAACGUUCUCAACUAUGACACGCAAAACGCGUGCUCCGUCGAAUGGAGUUUAUCAUG [C51U G92C U135C], GGAUCUUCUCGAUCUAACAAAAAAGACAAAUCUGCCACAAAGCUUGAGAGCAUCUUCGGAUGCAGAGGCGGCAGACUUCGGUGGCGCGAUAGCGCUCACGUUCUCAACUAUGACACGCAAAACGCGUGCUCCGUUGAAUGGAGUUUAUCAUG [C75A C96U A97C] is lower in “polymerase ribozyme fitness (log ratio)” value: -3.1 for the first, at most -4.2 for the second.

First: GGAUCUUCUCGAUCUAACAAAAAAGACAAAUCUGCCACAAAGCUUGAGAGCAUCUUCGGAUGCAGAGGCGGCAGCCUUCGGUGGCACGUUAGCGCCAACGUUCUUAACUAUGACACGCAAAACGCGUGCUCCGAUGAAUGGAGUUUAUCAUG [G86A A89U C105U U134A]
Second: GGAUCUUCUCGAUCUAACAAAAAAGACAAAUCUGGCACAAAGCUUGAGAGCAUCUUCGGAUGCAGAGGCGGCAGCCUUCGGUGACGCGAUAGGGCCAACGGUCUCAACUAUGACACGCAAAACGCGUGCUCCGUUGAAUGGAGUUUAUCAUG [C35G G84A C93G U101G]
The “polymerase ribozyme fitness (log ratio)” value of the first is higher: -3.77 for the first, at most -4.2 for the second.

GGAUCUUCUCGAUCUAACAAAAAAGACAAAACUGCCACAAAGCUAGAGAGCAUCUUCGGAUGCAGAGGCGGCAGCUUUCGGUGGUGCGAUAGUGCCAACGUUCUCAACUAUGACACGCAAAACGCGUGCUCCGUUUAAUGGAGUUUAUCCUG [U31A U45A C76U C85U C93U G136U A150C] and GGAUCUUCUCGAUCUAACAAAAAAGACGAAUCUGCCACAAAGCUUGAGAGCAUCUUCGGAUGCAGAGGCGGCAGCCUUCGGUGGCGCGAUAGCGCCAACGUUCUCAGCUAUGACACGCAAAACGCGUGCUCCGUUGAAUGGAGCUUAUCAUG [A28G A107G U144C] cannot be ordered by “polymerase ribozyme fitness (log ratio)” value: at most -4.2 for the first, at most -4.2 for the second.

Compared with GGAUAUUCUCGAUCUAACAAAAAAGACAAAUCUGCCUCAAAGCUUGAGAGCAUCUUCGGAUGCAGAGGCGGCAGCCUUCGGUGGCGCGAUAGCGCCAACGUUCUCAACUAUGACACGCAAAACGCGUGCUCCGUUGAAUGGAGUUUAUCAUG [C5A A37U], GGAUCUUCUCGAUCUAACAAAAAAGCCAAAUCUGCCACAAAACUUGAGAGCAUCUUCGGAUGCAGAGGCGGCAGCCUUCGGUGGCGCGAUAGCGCCAACGUUCUCACCUAUGACACGCAAAACGCGUGCUCCGUUGAAUGGAGUUUAUCAUG [A26C G42A A107C] is lower in “polymerase ribozyme fitness (log ratio)” value: -0.964 for the first, at most -4.2 for the second.

First: GGAUCUUCUCGAUCUUACAAAAAAGACAAAUCUGCCACAAAGCUUGAGAGCAACUUCGGAUGCAGAGGCGGCAGCCUUCUGUGGUGCGAUAGCGCCAACGUUCUCAACUAUGACACGCAAAACGCGUGCUCCGUUGAAUGGAGUUUAUCAUU [A16U U53A G80U C85U G152U]
Second: GGAUCUUCUCGAUCUAACAAAAAAGACAAAUCUGCCACCAAGCUUGAGAGCAUCUUCGGAUGCAGAGGCGGCAGCCUUCGGUGGCGCGAUAGCGCCAACGUUCUCAACUAUGACACGCAAAACGCGUGCUCCCUUGAAUGGAGUUAAUCAUG [A39C G133C U146A]
The “polymerase ribozyme fitness (log ratio)” value of the first is lower: at most -4.2 for the first, -3.57 for the second.

GGAUCUUCUCGAUCUAACAAAAAAGACAAAUCUGCCACAAGGCUUGAGACCAUCUUCGGAUGCAGAGGCGGCAGCCUUCGGUGGUGAGAUAGCGCCAACGUUUUGAACUAUGACUCGCAAAACGCGUGCUCCGUUGAAUGGAGUUUAUCAUG [A41G G50C C85U C87A C103U C105G A115U] and GGAUCUUCUUGACCUAACAAAAAAGACAAAUCUGCCCCAAAGCUUGAGAGCAUCUUCGGAUGCAGAGGCAGCAGCCUUAGGUGACGCGAUAGCGCCAACGUUCUCACCUAUGACACGCAAAACGCGUGCUCCGUUGAAUGGAGUUUAUCAUG [C10U U13C A37C G70A C79A G84A A107C] cannot be ordered by “polymerase ribozyme fitness (log ratio)” value: at most -4.2 for the first, at most -4.2 for the second.

Compared with GGAACUUCUCGAUCUAACAAAAAAGACAAAUCUGCCACAAAGCUUGAGAGCAUCUUCGGAUGCAGAGGCGGCAGCCUUCGGUGACGCGAUAGCGCCAACGUUCUCAACUAUGACACGCAAAACGCGUGCUCCGUUGAAUGGAGUUUAUCAUG [U4A G84A], GGAUCUUCUUGAUCUAACAAAAAAGACAAAUCUGCCACAAAGCUUGAGAGCAUCUUCGGAUGCAGAGGCGGCAGCCUUCGGUGGGGCGAUAGCGCCAACGUUCUCAACUAUGACACGCAAAACGCGUGCUCCGUUGAAUGGAGUUUAUCAUG [C10U C85G] is lower in “polymerase ribozyme fitness (log ratio)” value: -0.288 for the first, -3.57 for the second.

In the case of GGAUCUUCUCGAUCUAACAAAAAAGACAAAUCUGCCACAAAGCUUGAGAGCAUACUCGGAUGCAGAGGCGGCAGCCUUAGGUGGCCCGAUAGCGCCAACGUUGUCAACUAUGACACGCAAAACGCGUGCUCCGUUGAAUGGAGUUUCUCAUG [C54A U55C C79A G86C C103G A147C], the “polymerase ribozyme fitness (log ratio)” value is reported as at most -4.2.
